From US20210000969A1 (HUALAN GENETIC ENGINEERING, published 2021) come the findings set out here.

The target of the assay is T1, mouse PV-1 protein (mouse, UniProt Q91VC4 1-438, limits assumed).
T1 construct: The form tested is not described
T1 sequence: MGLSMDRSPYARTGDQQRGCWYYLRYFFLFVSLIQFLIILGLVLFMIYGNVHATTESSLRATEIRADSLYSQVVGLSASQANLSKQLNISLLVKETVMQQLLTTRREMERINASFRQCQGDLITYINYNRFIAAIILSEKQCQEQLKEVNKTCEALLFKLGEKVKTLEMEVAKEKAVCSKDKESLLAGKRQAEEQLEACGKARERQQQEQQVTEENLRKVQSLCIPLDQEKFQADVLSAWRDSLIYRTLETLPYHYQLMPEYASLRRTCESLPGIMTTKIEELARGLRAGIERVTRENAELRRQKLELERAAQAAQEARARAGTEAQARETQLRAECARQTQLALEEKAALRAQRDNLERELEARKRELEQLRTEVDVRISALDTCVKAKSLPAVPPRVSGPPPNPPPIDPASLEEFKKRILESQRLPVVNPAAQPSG
Nature of the assay: not described.

B1: murine monoclonal antibody STW-139-15 (antibody, V domains shown)
VH: QVQLQQSGAELVKPGASVKLSCKASGYTFTDYYMYWVKQRPGQGLELIGEINPTNGDVNFNEMFKSKATLTVDTSSRTAYMQLSSLTSEDSAVYYCTSIHYWGQGTLVTVSA
VL: DIVMTQSPSSMYASLGERITITCKASQDIKTNLSWYQQKPWKSPKTLIYYATDLADGVPSRFSGSGSGQYFSLTISSLESDDTATYYCLQHDDRPFTFGSGTKLEIK
B1: the binding result is reported as “no binding”.
